T1: human fibrinogen (human, UniProt P02671 20-644; P02675 31-491; P02679 27-437)
T1 construct: Amine-coupled to a CM5 chip
T1 sequence 1: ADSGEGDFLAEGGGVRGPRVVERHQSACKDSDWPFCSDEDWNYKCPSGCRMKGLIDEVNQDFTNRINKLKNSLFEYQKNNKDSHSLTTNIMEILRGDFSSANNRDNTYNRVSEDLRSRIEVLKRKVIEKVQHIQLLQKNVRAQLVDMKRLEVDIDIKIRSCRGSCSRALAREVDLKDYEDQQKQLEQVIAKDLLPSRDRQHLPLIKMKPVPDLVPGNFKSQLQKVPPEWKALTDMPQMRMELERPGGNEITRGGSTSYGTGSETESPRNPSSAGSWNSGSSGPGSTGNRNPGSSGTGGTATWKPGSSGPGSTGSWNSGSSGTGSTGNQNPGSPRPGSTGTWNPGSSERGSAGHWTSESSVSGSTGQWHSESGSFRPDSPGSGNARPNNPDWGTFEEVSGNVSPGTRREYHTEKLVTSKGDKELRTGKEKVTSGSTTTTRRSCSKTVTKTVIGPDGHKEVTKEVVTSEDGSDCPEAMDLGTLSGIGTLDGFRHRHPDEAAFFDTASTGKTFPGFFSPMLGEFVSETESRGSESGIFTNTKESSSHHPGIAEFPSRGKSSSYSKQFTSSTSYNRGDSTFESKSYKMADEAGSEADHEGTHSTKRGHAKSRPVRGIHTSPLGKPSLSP
T1 sequence 2: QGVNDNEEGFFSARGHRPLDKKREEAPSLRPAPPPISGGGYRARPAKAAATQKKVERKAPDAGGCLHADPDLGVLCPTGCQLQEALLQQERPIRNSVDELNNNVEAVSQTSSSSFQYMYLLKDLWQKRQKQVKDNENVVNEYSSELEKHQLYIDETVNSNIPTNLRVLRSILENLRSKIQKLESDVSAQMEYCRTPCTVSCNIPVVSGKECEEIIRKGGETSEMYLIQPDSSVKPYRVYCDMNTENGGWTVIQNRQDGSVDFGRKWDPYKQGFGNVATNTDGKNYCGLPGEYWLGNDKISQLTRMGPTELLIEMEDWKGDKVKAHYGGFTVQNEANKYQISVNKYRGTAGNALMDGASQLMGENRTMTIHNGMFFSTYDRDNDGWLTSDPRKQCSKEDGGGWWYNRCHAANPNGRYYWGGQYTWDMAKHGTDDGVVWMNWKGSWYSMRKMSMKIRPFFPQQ
T1 sequence 3: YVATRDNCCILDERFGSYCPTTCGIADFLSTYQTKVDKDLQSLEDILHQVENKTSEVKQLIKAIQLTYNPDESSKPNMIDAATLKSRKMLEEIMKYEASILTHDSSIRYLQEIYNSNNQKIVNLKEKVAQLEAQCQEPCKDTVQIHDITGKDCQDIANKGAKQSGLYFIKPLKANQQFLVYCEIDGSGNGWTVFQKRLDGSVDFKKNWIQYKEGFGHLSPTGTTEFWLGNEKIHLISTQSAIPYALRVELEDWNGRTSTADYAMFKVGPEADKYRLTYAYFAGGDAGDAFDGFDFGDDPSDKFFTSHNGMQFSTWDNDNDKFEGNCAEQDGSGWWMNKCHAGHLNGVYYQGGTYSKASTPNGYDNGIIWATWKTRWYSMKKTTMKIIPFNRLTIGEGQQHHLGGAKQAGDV


Columns and labels:
human fibrinogen [1] = target: T1, human fibrinogen; assay: SPR (BIAcore 3000), human fibrinogen amine-coupled to CM5 chip, Coa injected, 1:1 model
human prothrombin [2] = target: T2, human prothrombin (human, UniProt P00734 44-622); assay: SPR (BIAcore 3000), human prothrombin amine-coupled to CM5 chip, Coa injected at 0-75 nM, 1:1 model
T2 construct: Amine-coupled to a CM5 chip

human prothrombin [3] = target: T2, human prothrombin; assay: SPR (BIAcore 3000), human prothrombin amine-coupled to CM5 chip, vWbp injected, 1:1 model; target prothrombin
human fibrinogen [4] = target: T1, human fibrinogen; assay: SPR (BIAcore 3000), human fibrinogen amine-coupled to CM5 chip, vWbp injected, 1:1 model; target fibrinogen

Binder | Kd (human fibrinogen [1]) [nM] | Kd (human prothrombin [2]) [nM] | Kd (human prothrombin [3]) [nM] | Kd (human fibrinogen [4]) [nM]
coagulase (Coa), recombinant mature protein with the His6 tag removed by Factor Xa (other, also called functionally active Coa) IVTKDYSGKSQVNAGSKNGTLIDSRYLNSALYYLEDYIIYAIGLTNKYEYGDNIYKEAKDRLLEKVLREDQYLLERKKSQYEDYKQWYANYKKENPRTDLKMANFHKYNLEELSMKEYNELQDALKRALDDFHREVKDIKDKNSDLKTFNAAEEDKATKEVYDLVSEIDTLVVSYYGDKDYGEHAKELRAKLDLILGDTDNPHKITNERIKKEMIDDLNSIIDDFFMETKQNRPKSITKYNPTTHNYKTNSDNKPNFDKLVEETKKAVKEADDSWKKKTVKKYGETETKSPVVKEEKKVEEPQAPKVDNQQEVKTTAGKAEETTQPVAQPLVKIPQGTITGEIVKGPEYPTMENKTVQGEIVQGPDFLTMEQSGPSLSNNYTNPPLTNPILEGLEGSSSKLEIKPQGTESTLKGTQGESSDIEVKPQATETTEASQYGPRPQFNKTPKYVKYRDAGTGIREYNDGTFGYEARPRFNKPSETNAYNVTTHANGQVSYGARPTYKKPSETNAYNVTTHANGQVSYGARPTQNKPSKTNAYNVTTHGNGQVSYGARPTQNKPSKTNAYNVTTHANGQVSYGARPTYKKPSKTNAYNVTTHADGTATYGPRVTK | 93.1 | 28 | – | –
von Willebrand factor binding protein (vWbp), recombinant mature protein with the His6 tag removed by Factor Xa (other, also called functionally active vWbp) VVSGEKNPYVSESLKLTNNKNKSRTVEEYKKSLDDLIWSFPNLDNERFDNPEYKEAMKKYQQRFMAEDEALKKFFSEEKKIKNGNTDNLDYLGLSHERYESVFNTLKKQSEEFLKEIEDIKKDNPELKDFNEEEQLKCDLELNKLENQILMLGKTFYQNYRDDVESLYSKLDLIMGYKDEERANKKAVNKRMLENKKEDLETIIDEFFSDIDKTRPNNIPVLEDEKQEEKNHKNMAQLKSDTEAAKSDESKRSKRSKRSLNTQNHKPASQEVSEQQKAEYDKRAEERKARFLDNQKIKKTPVVSLEYDFEHKQRIDNENDKKLVVSAPTKKPTSPTTYTETTTQVPMPTVERQTQQQIIYNAPKQLAGLNGESHDFTTTHQSPTTSNHTHNNVVEFEETSALPGRKSGSLVGISQIDSSHLTEREKRVIKREHVREAQKLVDNYKDTHSYKDRINAQQKVNTLSEGHQKRFNKQINKVYNGK | – | – | 38.4 | 484

From US9567379 (UNIVERSITY OF CHICAGO, dated 2017)
